Measurements taken from patent US11325966.

How the values were obtained:
Experiment in all cases: cell-based or functional assay
[1] = target: HIV-1 Env of pseudovirus 231965.c01 (HIV-1)
[2] = target: HIV-1 Env of pseudovirus 231966.c02 (HIV-1)
[3] = target: HIV-1 Env of pseudovirus Ce2060_G9 (HIV-1)
[4] = target: HIV-1 Env of pseudovirus 1054_07_TC4_1499 (HIV-1)
[5] = target: HIV-1 Env of pseudovirus 6535.3 (HIV-1)
[6] = target: HIV-1 Env of pseudovirus 928-28 (HIV-1)
[7] = target: HIV-1 Env of pseudovirus WEAU_d15_410_787 (HIV-1)
[8] = target: HIV-1 Env of pseudovirus 211-9 (HIV-1)
[9] = target: HIV-1 Env of pseudovirus Du422.1 (HIV-1)
[10] = target: HIV-1 Env of pseudovirus SC05_8C11_2344 (HIV-1)
[11] = target: HIV-1 Env of pseudovirus T278-50 (HIV-1)
[12] = target: HIV-1 Env of pseudovirus T251-18 (HIV-1)
[13] = target: HIV-1 Env of pseudovirus 6041.v3.c23 (HIV-1)
[14] = target: HIV-1 Env of pseudovirus HIV-16055-2.3 (HIV-1)
[15] = target: HIV-1 Env of pseudovirus Ce1086_B2 (HIV-1)
[16] = target: HIV-1 Env of pseudovirus CNE21 (HIV-1)
[17] = target: HIV-1 Env of pseudovirus BJOX010000.06.2 (HIV-1)
[18] = target: HIV-1 Env of pseudovirus Ce1172_H1 (HIV-1)
[19] = target: HIV-1 Env of pseudovirus 62357_14_D3_4589 (HIV-1)
[20] = target: HIV-1 Env of pseudovirus 1394C9G1(Rev-) (HIV-1)
[21] = target: HIV-1 Env of pseudovirus C4118.c09 (HIV-1)
[22] = target: HIV-1 Env of pseudovirus BF1266.431a (HIV-1)
[23] = target: HIV-1 Env of pseudovirus 9004SS_A3_4 (HIV-1)
[24] = target: HIV-1 Env of pseudovirus TRJO4551.58 (HIV-1)
[25] = target: HIV-1 Env of pseudovirus A07412M1.vrc12 (HIV-1)
[26] = target: HIV-1 Env of pseudovirus CNE8 (HIV-1)
[27] = target: HIV-1 Env of pseudovirus ZM247v1(Rev-) (HIV-1)
[28] = target: HIV-1 Env of pseudovirus 6480.v4.c25 (HIV-1)
[29] = target: HIV-1 Env of pseudovirus 0815.v3.c3 (HIV-1)
[30] = target: HIV-1 Env of pseudovirus C3347.c11 (HIV-1)
[31] = target: HIV-1 Env of pseudovirus HIV-001428-2.42 (HIV-1)
[32] = target: HIV-1 Env of pseudovirus HIV-16845-2.22 (HIV-1)
[33] = target: HIV-1 Env of pseudovirus CNE17 (HIV-1)
[34] = target: HIV-1 Env of pseudovirus 3365.v2.c2 (HIV-1)
[35] = target: HIV-1 Env of pseudovirus X1632_S2_B10 (HIV-1)
[36] = target: HIV-1 Env of pseudovirus Ce0682_E4 (HIV-1)
[37] = target: HIV-1 Env of pseudovirus ZM249M.PL1 (HIV-1)
[38] = target: HIV-1 Env of pseudovirus BJOX025000.01.1 (HIV-1)
[39] = target: HIV-1 Env of pseudovirus ZM53M.PB12 (HIV-1)

B1: 10-1074 (antibody, V domains shown)
VH: QVQLQESGPGLVKPSETLSVTCSVSGDSMNNYYWTWIRQSPGKGLEWIGYISDRESATYNPSLNSRVVISRDTSKNQLSLKLNSVTPADTAVYYCATARRGQRIYGVVSFGEFFYYYSMDVWGKGTTVTVSS
VL: SYVRPLSVALGETARISCGRQALGSRAVQWYQHRPGQAPILLIYNNQDRPSGIPERFSGTPDINFGTRATLTISGVEAGDEADYYCHMWDSRSGFSWSFGGATRLTVL
[1]
  IC50 in TZM-bl assay: > 10 µg/mL
  IC80 in TZM-bl assay: > 10 µg/mL
[2]
  IC50 in TZM-bl assay: > 10 µg/mL
  IC80 in TZM-bl assay: > 10 µg/mL
[3]
  IC50 in TZM-bl assay: > 10 µg/mL
  IC80 in TZM-bl assay: > 10 µg/mL
[4]
  IC50 in TZM-bl assay: 0.048 µg/mL
  IC80 in TZM-bl assay: 0.222 µg/mL
[5]
  IC50 in TZM-bl assay: 0.007 µg/mL
  IC80 in TZM-bl assay: 0.022 µg/mL
[6]
  IC50 in TZM-bl assay: 0.616 µg/mL
  IC80 in TZM-bl assay: 2.4 µg/mL
[7]
  IC50 in TZM-bl assay: 0.031 µg/mL
  IC80 in TZM-bl assay: 0.112 µg/mL
[8]
  IC50 in TZM-bl assay: 0.065 µg/mL
  IC80 in TZM-bl assay: 0.403 µg/mL
[9]
  IC50 in TZM-bl assay: 0.047 µg/mL
  IC80 in TZM-bl assay: 0.113 µg/mL
[10]
  IC50 in TZM-bl assay: 0.017 µg/mL
  IC80 in TZM-bl assay: 0.048 µg/mL
[11]
  IC50 in TZM-bl assay: 1.71 µg/mL
  IC80 in TZM-bl assay: > 10 µg/mL
[12]
  IC50 in TZM-bl assay: 0.399 µg/mL
  IC80 in TZM-bl assay: 2.29 µg/mL
[13]
  IC50 in TZM-bl assay: > 10 µg/mL
  IC80 in TZM-bl assay: > 10 µg/mL
[14]
  IC50 in TZM-bl assay: > 10 µg/mL
  IC80 in TZM-bl assay: > 10 µg/mL
[15]
  IC50 in TZM-bl assay: > 10 µg/mL
  IC80 in TZM-bl assay: > 10 µg/mL
[16]
  IC50 in TZM-bl assay: 0.047 µg/mL
  IC80 in TZM-bl assay: 0.124 µg/mL
[17]
  IC50 in TZM-bl assay: > 10 µg/mL
  IC80 in TZM-bl assay: > 10 µg/mL
[18]
  IC50 in TZM-bl assay: 0.019 µg/mL
  IC80 in TZM-bl assay: 0.083 µg/mL
[19]
  IC50 in TZM-bl assay: > 10 µg/mL
  IC80 in TZM-bl assay: > 10 µg/mL
[20]
  IC50 in TZM-bl assay: 0.031 µg/mL
  IC80 in TZM-bl assay: 0.093 µg/mL
[21]
  IC50 in TZM-bl assay: > 10 µg/mL
  IC80 in TZM-bl assay: > 10 µg/mL
[22]
  IC50 in TZM-bl assay: > 10 µg/mL
  IC80 in TZM-bl assay: > 10 µg/mL
[23]
  IC50 in TZM-bl assay: 0.012 µg/mL
  IC80 in TZM-bl assay: 0.032 µg/mL
[24]
  IC50 in TZM-bl assay: 0.057 µg/mL
  IC80 in TZM-bl assay: 0.218 µg/mL
[25]
  IC50 in TZM-bl assay: 0.011 µg/mL
  IC80 in TZM-bl assay: 0.037 µg/mL
[26]
  IC50 in TZM-bl assay: > 10 µg/mL
  IC80 in TZM-bl assay: > 10 µg/mL
[27]
  IC50 in TZM-bl assay: 0.042 µg/mL
  IC80 in TZM-bl assay: 0.146 µg/mL
[28]
  IC50 in TZM-bl assay: 0.006 µg/mL
  IC80 in TZM-bl assay: 0.023 µg/mL
[29]
  IC50 in TZM-bl assay: 0.043 µg/mL
  IC80 in TZM-bl assay: 0.197 µg/mL
[30]
  IC50 in TZM-bl assay: > 10 µg/mL
  IC80 in TZM-bl assay: > 10 µg/mL
[31]
  IC50 in TZM-bl assay: 0.035 µg/mL
  IC80 in TZM-bl assay: 0.126 µg/mL
[32]
  IC50 in TZM-bl assay: 0.727 µg/mL
  IC80 in TZM-bl assay: 3.93 µg/mL
[33]
  IC50 in TZM-bl assay: 1.18 µg/mL
  IC80 in TZM-bl assay: 4.85 µg/mL
[34]
  IC50 in TZM-bl assay: 0.057 µg/mL
  IC80 in TZM-bl assay: 0.2 µg/mL
[35]
  IC50 in TZM-bl assay: > 10 µg/mL
  IC80 in TZM-bl assay: > 10 µg/mL
[36]
  IC50 in TZM-bl assay: > 10 µg/mL
  IC80 in TZM-bl assay: > 10 µg/mL
[37]
  IC50 in TZM-bl assay: > 10 µg/mL
  IC80 in TZM-bl assay: > 10 µg/mL
[38]
  IC50 in TZM-bl assay: > 10 µg/mL
  IC80 in TZM-bl assay: > 10 µg/mL
[39]
  IC50 in TZM-bl assay: > 10 µg/mL
  IC80 in TZM-bl assay: > 10 µg/mL
